Data set [1] deals with Gba1 null/null mouse fibroblasts. Put plainly: Immunofluorescence co-localization of expressed GCase constructs (lysosome vs ER/Golgi). The data set is classed as cell-based. To be noted: for localization of GCase DSPIIV variants to the lysosome (Lamp1 / LIMP-2 co-localization), in words: transient transfection, FIG. 10A. An excerpt:
Immunofluorescence studies (IF): Mouse Gba1 null/null were used for the host cells for all transfection experiments. pCMV-AC-GFP Mammalian cell expression vector was used for expression of various GCases that included the TKD region (amino acids 407, 408 and 409) or the DSPIIV (SEQ ID NO 15) region (amino acids 399-404). Direct-labeled first antibodies were applied for IF detection; including anti-human GCase, -Calreticulin, -calnexin, -LIMP2, and -Lamp1. Lysotracker and ER tracker (Invitrogen) were also used as indicated. Analyses were done with a Zeiss AxioVert 200M with ApoTome. Co-localization analyses to obtain Pearson Indices were conducted using a module in the Axiovision 4.8 software.
Initial studies to localize the targeting peptide were conducted with GCase-GFP fusion constructs that had COOH-terminal deletions of GCase (FIG. 1). The constructs are designated as GCase-XX or XXX where the Xs represent the number of GCase amino acids deleted from the COOH-terminus. These constructs were transfected into and expressed in Gba1 null/null mouse fibroblasts using the CMV promoter (pCMV-AC-GFP or YFP) Immunofluorescence analyses using anti-human GCase IgG (green) and Lysotracker (Red) were used for colocalization of GCase to the lysosome (Red) or GCase (green) and Calreticulin or Calnexin (Red) for colocalization to the ER or Golgi (FIG. 2). […] Since LIMP-2 is the receptor for targeting of GCase to the lysosome, our working hypothesis was that the peptide sequence for binding of GCase to LIMP-2 was located within amino acids 347-422.

Another data set addresses T1, ldLIMP2 (Homo sapiens, UniProt Q14108).
T1 construct: Purified luminal domain LIMP-2 (1d-LIMP2) was custom made (Sino Biological Inc., PRC.); purchased Sino Biological Inc
T1 sequence (Q14108 28-433 limits assumed): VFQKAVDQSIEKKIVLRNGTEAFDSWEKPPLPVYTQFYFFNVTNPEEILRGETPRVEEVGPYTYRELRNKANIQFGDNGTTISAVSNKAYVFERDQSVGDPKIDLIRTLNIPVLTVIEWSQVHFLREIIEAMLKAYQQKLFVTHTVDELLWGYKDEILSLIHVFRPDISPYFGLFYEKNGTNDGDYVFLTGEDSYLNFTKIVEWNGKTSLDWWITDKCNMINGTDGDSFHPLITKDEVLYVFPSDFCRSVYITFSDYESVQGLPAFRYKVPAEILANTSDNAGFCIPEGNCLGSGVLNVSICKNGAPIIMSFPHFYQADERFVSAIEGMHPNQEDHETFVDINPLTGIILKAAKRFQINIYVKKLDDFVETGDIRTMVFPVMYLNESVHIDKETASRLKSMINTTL
Nature of the data set: Immunoprecipitation of alanine substituted GCases (TKD sequence) with ldLIMP2. Format: binding. The following applies: GCase:LIMP2 1:1, immunoblot, FIG. 6. The text has this:
FIG. 6A-6E: Immunoprecipitation of the alanine substituted GCases in the TKD sequence with ldLIMP2. In panels shown in FIG. 6A to FIG. 6D, the lanes 1 through 6 correspond to the band densities indicated by the bars in FIG. 6E. […] The quantitative results are shown in (FIG. 6E) in which 1, 2, 3, and 4 correspond to WT, AAA, AKA, and AKD, respectively.
Immunoprecipitation of GCases with mutations in the TKD sequence: For immunoblots, Gba1 knockout mouse fibroblasts (null/null) were transfected with the GBA1 constructs (WT or mutants) and expressed for 5 days. The GCases from harvested cell lysates were purified using a GCase antibody affinity column (Dynabeads protein G crosslinked (BS3) with rabbit anti-human GCase antibody). The purified GCases were then mixed with LIMP2 (1:1), incubated (30 min.), and applied to another affinity column (Dynabeads protein G crosslinked (BS3) with rabbit anti-LIMP2 antibody). Aliquots of each step (loading, wash and eluent) were collected and analyzed on 12.5% SDS gels. Immunoblots were developed using anti-human GCase antibody and AP conjugated color development kits. Mock experiments with either non-LIMP2 proteins added or no GCases added, were used as control. The quantitations of these immunoprecipitation data were obtained from densitometry measurements of the gels. The no-LIMP-2 bars are the controls for comparison, since GCase was processed through all steps without LIMP-2 to account for any losses of GCase; About 50% of the GCase was lost during processing.

The subject of the next data set is Gba1−/− cells. Nature of the data set: Proportion of GCase protein in cells and media. The data set is classed as cell-based, mouse. To be noted: for % Secreted: ng GCase in media / (ng in media + ng in lysates) × 100. An excerpt: (§1) FIG. 11A-FIG. 11C: Secretion and retention of GCase with alanine variants in the TDK (FIG. 11A) or DSPIIV (SEQ ID NO 15) (FIG. 11B and FIG. 11C) sequences. FIG. 11A depicts activities in the media of Gba1−/− fibroblasts following transient transfections of each of the specified alanine substituted GCases in the TDK region. […] FIG. 11B depicts in the Left Panel: Activities in the media following transient transfections of various DSPIIV (SEQ ID NO 15) alanine substituted GCases and the % of GCase secreted. The latter was calculated as {ng GCase (in media)/[ng GCase (in media)+ng (GCase in lysates)]}×100 (also see Table 2). […] The transfections alone (Null+lipo) had no effect. […] FIG. 11C deicts in cellular lysate GCase activities from the various alanine substituted GCases in the DSPIIV (SEQ ID NO 15) sequence as indicated. […] The doubly alanine substituted GCase had little intracellular activity, i.e., nearly all the GCase was secreted into the media.

Another data set has as its system Gba1−/− fibroblasts. Put plainly: GCase activity in media and cell lysates after transient transfection (secretion and retention). The data set is classed as cell-based, mouse. The following applies: for GCase activity in the media / secretion, in words: FIG. 11A, 11B.
Text: as §1
(§2) Enzyme Assays: Cell pellets were homogenized in 0.25% Na-taurocholate and 0.25% Triton X-100. GCase activities were determined fluorometrically with 4 mM 4MU-Glc in 0.2M/0.1M citric-phosphate, pH 5.6 (18, 54)

The nature of data set [2]: CRIM specific activity of GCase variants (activity per cross-reacting immunological material). Format: biochemical. The following applies: FIG. 11B right panel. As to the method:
as §2
Corresponding effects on the secretion of GCases from the cells containing various mutations in DSPIIVDITDK were found by assessing the activity of GCases in the media and cell lysate (FIG. 11 A-C). […] Using this assessment, the ratio of CRIM specific activities relative to WT (assigned 100%) for AAA, TAD, and AKA were 20%, 32%, and 49%, respectively (FIG. 11A, right panel), or that more GCase protein was required from the respective mutants to achieve the same enzyme activity as the WT. […] For the other mutants this ranged from 22-36%. This compares to ˜0% for the WT or D399E GCases Immunoaffinity anti-GCase column purification of the various GCases from media confirmed the excesses of these mutant GCases and the inability to detect WT or D399E GCases in media (data not shown).

Here are results for 3 molecules from patent US9738880B2, “Lysosomal protein targeting sequence and therapeutic applications of same” (Children's Hospital Medical Center, priority 2013, dated 2017).

“Also recorded” adds a separate entry of the source.

B1: Human WT: wild type human GCase (acid β-glucosidase, SEQ ID NO 2) expressed in Gba1−/− cells (protein, listed as Homo sapiens)
chain: ARPCIPKSFGYSSVVCVCNATYCDSFDPPTFPALGTFSRYESTRSGRRMELSMGPIQANHTGTGLLLTLQPEQKFQKVKGFGGAMTDAAALNILALSPPAQNLLLKSYFSEEGIGYNIIRVPMASCDFSIRTYTYADTPDDFQLHNFSLPEEDTKLKIPLIHRALQLAQRPVSLLASPWTSPTWLKTNGAVNGKGSLKGQPGDIYHQTWARYFVKFLDAYAEHKLQFWAVTAENEPSAGLLSGYPFQCLGFTPEHQRDFIARDLGPTLANSTHHNVRLLMLDDQRLLLPHWAKVVLTDPEAAKYVHGIAVHWYLDFLAPAKATLGETHRLFPNTMLFASEACVGSKFWEQSVRLGSWDRGMQYSHSIITNLLYHVVGWTDWNLALNPEGGPNWVRNFVDSPIIVDITKDTFYKQPMFYHLGHFSKFIPEGSQRVGLVASQKNDLDAVALMHPDGSAVVVVLNRSSKDVPLTIKDPAVGFLETISPGYSIHTYLWRRQ
Take B1: the “localization of GCase DSPIIV variants to the lysosome (Lamp1 / LIMP-2 co-localization), in words” value in data set [1] (listed as WT) is “targeted to the lysosomes; also recorded: co-localization of GCase (FITC) with either Lamp 1 (Red) or LIMP-2”. In addition, the “binding of GCase variant to ldLIMP2, in words” value with ldLIMP2 (listed as WT) is given as “nearly complete binding; also recorded: bound similarly”. Moreover, in the data set on Gba1−/− cells (cellular + media, mean ± SD, n = 3), the “Total GCase” value turned out to be 23 ± 4 ng. Further, the “% Secreted” value in the data set on Gba1−/− cells is reported as about 0%. In the data set with Gba1−/− cells (total ng, mean ± SD, n = 3), the “Cellular GCase” value was found to be 23 ± 4 ng and the “Media GCase” value amounted to 0 ng.

B2: AKD: human GCase with TKD (407-409) replaced by AKD, as named in figure legends (protein, UniProt P04062 40-536, looked up, variant T407A)
Lysosomal acid …: ARPCIPKSFGYSSVVCVCNATYCDSFDPPTFPALGTFSRYESTRSGRRMELSMGPIQANHTGTGLLLTLQPEQKFQKVKGFGGAMTDAAALNILALSPPAQNLLLKSYFSEEGIGYNIIRVPMASCDFSIRTYTYADTPDDFQLHNFSLPEEDTKLKIPLIHRALQLAQRPVSLLASPWTSPTWLKTNGAVNGKGSLKGQPGDIYHQTWARYFVKFLDAYAEHKLQFWAVTAENEPSAGLLSGYPFQCLGFTPEHQRDFIARDLGPTLANSTHHNVRLLMLDDQRLLLPHWAKVVLTDPEAAKYVHGIAVHWYLDFLAPAKATLGETHRLFPNTMLFASEACVGSKFWEQSVRLGSWDRGMQYSHSIITNLLYHVVGWTDWNLALNPEGGPNWVRNFVDSPIIVDIAKDTFYKQPMFYHLGHFSKFIPEGSQRVGLVASQKNDLDAVALMHPDGSAVVVVLNRSSKDVPLTIKDPAVGFLETISPGYSIHTYLWRRQ
For the molecule B2, the “enzyme localized to the lysosome” value in data set [1] (TKD sequence variants, FIG. 5) is “about 50%”. In addition, the “binding of GCase variant to ldLIMP2, in words” value with ldLIMP2 is given as “somewhat less binding”. Besides, in the data set on Gba1−/− fibroblasts, the “GCase activity in the media / secretion, in words” value was “greatest increases”.

B3: D399E: human GCase variant with charge conserved D399E (ESPIIV, SEQ ID NO 20) (protein)
chain: ARPCIPKSFGYSSVVCVCNATYCDSFDPPTFPALGTFSRYESTRSGRRMELSMGPIQANHTGTGLLLTLQPEQKFQKVKGFGGAMTDAAALNILALSPPAQNLLLKSYFSEEGIGYNIIRVPMASCDFSIRTYTYADTPDDFQLHNFSLPEEDTKLKIPLIHRALQLAQRPVSLLASPWTSPTWLKTNGAVNGKGSLKGQPGDIYHQTWARYFVKFLDAYAEHKLQFWAVTAENEPSAGLLSGYPFQCLGFTPEHQRDFIARDLGPTLANSTHHNVRLLMLDDQRLLLPHWAKVVLTDPEAAKYVHGIAVHWYLDFLAPAKATLGETHRLFPNTMLFASEACVGSKFWEQSVRLGSWDRGMQYSHSIITNLLYHVVGWTDWNLALNPEGGPNWVRNFVESPIIVDITKDTFYKQPMFYHLGHFSKFIPEGSQRVGLVASQKNDLDAVALMHPDGSAVVVVLNRSSKDVPLTIKDPAVGFLETISPGYSIHTYLWRRQ
In the case of B3, the “Pearson Indices for co-localization to the lysosome, in words” value in data set [1] (DSPIIV variants, FIG. 10B) was “did not alter the co-localization compared to WT”. The “localization of GCase DSPIIV variants to the lysosome (Lamp1 / LIMP-2 co-localization), in words” value in data set [1] was “targeted to the lysosomes”; in data set [1] (listed as E399), “did not alter the cellular localization or secretion of GCase”; in data set [1] (listed as ESPIIV) it was “co-localization of GCase (FITC) with either Lamp 1 (Red) or LIMP-2”. Besides, the “CRIM specific activity, in words” value in data set [2] is listed as “minor change in CRIM specific activity”. In the data set with Gba1−/− cells, the “% Secreted” value is about 0%. Also, the “GCase activity in cell lysates, in words” value with Gba1−/− fibroblasts (cell lysates, FIG. 11C) was “equal intracellular activities”. For the same molecule, the “GCase activity in the media / secretion, in words” value was “no media activity above background” in the data set on Gba1−/− fibroblasts, “did not alter the cellular localization or secretion of GCase” in the data set with Gba1−/− fibroblasts (listed as E399) and “did not alter secretion” with Gba1−/− fibroblasts (listed as ESPIIV).
